Measurements taken from patent EP4628507A1 (Jiangsu Hengrui Pharmaceuticals Co., Ltd., dated 2025).
Read-outs that look alike come from different tables or passages of the source.

Legend:
[1] = target: T1, human 4-1BB on the surface of HEK293-Hu4-1BB cells (human, UniProt Q07011 24-255); test: cell-based or functional assay
[2] = target: T1, human 4-1BB on the surface of …; test: cell-based or functional assay; remark: listed apart in the source
[3] = target: T1, human 4-1BB on the surface of …; test: flow cytometry on HEK293-Hu4-1BB cells
[4] = target: T1, human 4-1BB on the surface of …; test: flow cytometry on HEK293-Hu4-1BB cells; remark: listed apart in the source

T1 sequence (Q07011 24-255): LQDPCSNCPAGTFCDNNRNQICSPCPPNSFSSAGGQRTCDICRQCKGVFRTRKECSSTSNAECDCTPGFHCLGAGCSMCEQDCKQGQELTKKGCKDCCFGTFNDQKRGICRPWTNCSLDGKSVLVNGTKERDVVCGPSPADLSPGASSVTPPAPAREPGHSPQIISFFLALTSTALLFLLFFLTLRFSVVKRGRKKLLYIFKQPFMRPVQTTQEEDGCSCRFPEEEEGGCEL

B1: Urelumab (antibody, V domains shown)
VH: QVQLQQWGAGLLKPSETLSLTCAVYGGSFSGYYWSWIRQSPEKGLEWIGEINHGGYVTYNPSLESRVTISVDTSKNQFSLKLSSVTAADTAVYYCARDYGPGNYDWYFDLWGRGTLVTVSS
VL: EIVLTQSPATLSLSPGERATLSCRASQSVSSYLAWYQQKPGQAPRLLIYDASNRATGIPARFSGSGSGTDFTLTISSLEPEDFAVYYCQQRSNWPPALTFGGGTKVEIK
[1]
  Fold change in Emax, FcγRIIb-mediated activation of HEK293-4-1BB cells: 2.61 fold
  Fold change in Emax, activation of HEK293-4-1BB cells (no FcγRIIb): 1.7 fold
[2]
  EC50, 4-1BB/NF-κB luciferase reporter, FcγRIIb cross-linking: 0.027 nM
  EC50, 4-1BB/NF-κB luciferase reporter, no FcγRIIb cross-linking: 2.19 nM
  Emax, 4-1BB/NF-κB luciferase reporter, FcγRIIb cross-linking: 9.39 relative to the antibody-free group
  Emax, 4-1BB/NF-κB luciferase reporter, no FcγRIIb cross-linking: 4.3 relative to the antibody-free group
[3]
  EC50: 1.64 nM
[4]
  EC50: 1.18 nM
